Measurements as given in FireProtDB (doi:10.1093/protein/7.9.1089).
Several values for one entry are separate records, joined by “and”; a condition that tells them apart may be missing. Equal values may be shown once.

B1: Ribonuclease, P00648 (parent)
chain: MMKMEGIALKKRLSWISVCLLVLVSAAGMLFSTAAKTETSSHKAHTEAQVINTFDGVADYLQTYHKLPDNYITKSEAQALGWVASKGNLADVAPGKSIGGDIFSNREGKLPGKSGRTWREADINYTSGFRNSDRILYSSDWLIYKTTDHYQTFTKIR

Variants of: B1
Settings: Bacillus amyloliquefaciens, pH 4.4, Thermal, DSC, Sodium acetate/Acetic acid 6.08 mM/13.92 mM/, reversible: yes (>95%), structure 1BNI, whole UniProt chain shown; for ddG of mutation (higher = less stable) / heat capacity change of unfolding / unfolding free energy: 25 °C

| Variant | ddG of mutation (higher = less stable) | heat capacity change of unfolding | unfolding free energy | Tm | change of melting temperature, mutant - wild type (higher = more stable) | unfolding enthalpy (calorimetric) | unfolding enthalpy (van 't Hoff) |
| --- | --- | --- | --- | --- | --- | --- | --- |
| MMKMEGIALKKRLSWISVCLLVLVSAAGMLFSTAAKTETSSHKAHTEAQVINTFDGVADYLQTYHKLPDNYITKSEAQALGWVASKGNLADVAPGKSIGGDIFSNREGKLPGKSGRTWREADINYTSGFQNSDRILYSSDWLIYKTTDHYQTFTKIR [R130Q] | 6.61 kJ/mol | 1.6 kcal/mol/K | 29.6 kJ/mol | 48.3 °C | -3.29 °C | 488 kJ/mol | 513 kJ/mol |
| MMKMEGIALKKRLSWISVCLLVLVSAAGMLFSTAAKTETSSHKAHTEAQVINTFDGVADYLQTYHKLPDNYITKSEAQALGWVASKGNLADVAPGKSIGGDIFSNREGKLPGKSGRTWREADINYTSGFRNSDRVLYSSDWLIYKTTDHYQTFTKIR [I135V] | 6.15 kJ/mol | 1.6 kcal/mol/K | 30.2 kJ/mol | 48.1 °C | -3.37 °C | 499 kJ/mol | 522 kJ/mol |
| MMKMEGIALKKRLSWISVCLLVLVSAAGMLFSTAAKTETSSHKAHTEAQVINTFDGVADYLQRYHKLPDNYITKSEAQALGWVASKGNLADVAPGKSIGGDIFSNREGKLPGKSGRTWREADINYTSGFRNSDRILYSSDWLIYKTTDHYQTFTKIR [T63R] | -0.837 kJ/mol | 1.6 kcal/mol/K | 37.1 kJ/mol | 53 °C | 1.33 °C | 528 kJ/mol | 543 kJ/mol |
| MMKMEGIALKKRLSWISVCLLVLVSAAGMLFSTAAKTETSSHKAHTEAQVINTFDGVADYLQTYHKLPDNYITKSEAQALGWVASKGNLADVAPGKSIGGNIFSNREGKLPGKSGRTWREADINYTSGFRNSDRILYSSDWLIYKTTDHYQTFTKIR [D101N] | 10.3 kJ/mol and 11.1 kJ/mol | 1.6 kcal/mol/K | 25.9 kJ/mol and 25.1 kJ/mol | 44.6 °C and 44.1 °C | -7.06 °C and -7.49 °C | 488 kJ/mol and 481 kJ/mol | 474 kJ/mol and 484 kJ/mol |
| MMKMEGIALKKRLSWISVCLLVLVSAAGMLFSTAAKTETSSHKAHTEAQVINTFDGVADYLQTYHKLPDNYITKSEAQALGWVASKGNLADVAPGKSIGGDIFSNREGKLPGKSGRTWREADINYTSGFRNSDRILYASDWLIYKTTDHYQTFTKIR [S138A] | 5.77 kJ/mol and 4.85 kJ/mol | 1.6 kcal/mol/K | 30.6 kJ/mol and 31.5 kJ/mol | 46.7 °C | -4.81 °C and -4.8 °C | 526 kJ/mol and 538 kJ/mol | 485 kJ/mol and 482 kJ/mol |
| MMKMEGIALKKRLSWISVCLLVLVSAAGMLFSTAAKTETSSHKAHTEAQVINTFDGVADYLQTYHKLPDNYITKSEAQALGWVASKGNLADVAPGKSIGGDIFSNREGKLPGKSGRTWREADINYTSGFRNSDRILYSSDWLVYKTTDHYQTFTKIR [I143V] | 4.94 kJ/mol and 4.9 kJ/mol | 1.6 kcal/mol/K | 31.4 kJ/mol and 31.5 kJ/mol | 49.2 °C | -2.29 °C and -2.3 °C | 502 kJ/mol and 469 kJ/mol | 523 kJ/mol and 516 kJ/mol |
| MMKMEGIALKKRLSWISVCLLVLVSAAGMLFSTAAKTETSSHKAHTEAQVINTFAGVADYLQTYHKLPDNYITKSEAQALGWVASKGNLADVAPGKSIGGDIFSNREGKLPGKSGRTWREADINYTSGFRNSDRILYSSDWLIYKTTDHYQTFTKIR [D55A] | 2.89 kJ/mol | 1.6 kcal/mol/K | 33.3 kJ/mol | 49.7 °C | -1.91 °C | 520 kJ/mol | 533 kJ/mol |
| MMKMEGIALKKRLSWISVCLLVLVSAAGMLFSTAAKTETSSHKAHTEAQVINTFDGVADYLQTYHKLPDNYITKSEAQALGWVASKGNLADVAPGKSIGGDIFSNREGKLPGKSGRTWREADINYTSGFRNSDRILYSADWLIYKTTDHYQTFTKIR [S139A] | 11.8 kJ/mol | 1.6 kcal/mol/K | 24.4 kJ/mol | 44.5 °C | -7.13 °C | 464 kJ/mol | 461 kJ/mol |
| MMKMEGIALKKRLSWISVCLLVLVSAAGMLFSTAAKTETSSHKAHTEAQVINTFDGVADYLQTYHKLPMNYITKSEAQALGWVASKGNLADVAPGKSIGGDIFSNREGKLPGKSGRTWREADINYTSGFRNSDRILYSSDWLIYKTTDHYQTFTKIR [D69M] | 1.13 kJ/mol | 1.6 kcal/mol/K | 35.1 kJ/mol | 50.1 °C | -1.57 °C | 539 kJ/mol | 537 kJ/mol |
| MMKMEGIALKKRLSWISVCLLVLVSAAGMLFSTAAKTETSSHKAHTEAQVINTFDGVADYLQTYHKLPDNYITKSEAQALGWVASKGNLADVAPGKSVGGDIFSNREGKLPGKSGRTWREADINYTSGFRNSDRILYSSDWLIYKTTDHYQTFTKIR [I98V] | 7.78 kJ/mol | 1.6 kcal/mol/K | 28.6 kJ/mol | 47 °C | -4.53 °C | 492 kJ/mol | 479 kJ/mol |
| MMKMEGIALKKRLSWISVCLLVLVSAAGMLFSTAAKTETSSHKAHTEAQVINTFDGVADYLQTYHKLPDNYIGKSEAQALGWVASKGNLADVAPGKSIGGDIFSNREGKLPGKSGRTWREADINYTSGFRNSDRILYSSDWLIYKTTDHYQTFTKIR [T73G] | 8.7 kJ/mol | 1.6 kcal/mol/K | 27.5 kJ/mol | 47.6 °C | -4.06 °C | 468 kJ/mol | 496 kJ/mol |
| MMKMEGIALKKRLSWISVCLLVLVSAAGMLFSTAAKTETSSHKAHTEAQVINTFDGVAGYLQTYHKLPDNYITKSEAQALGWVASKGNLADVAPGKSIGGDIFSNREGKLPGKSGRTWREADINYTSGFRNSDRILYSSDWLIYKTTDHYQTFTKIR [D59G] | 3.26 kJ/mol | 1.6 kcal/mol/K | 33 kJ/mol | 49.7 °C | -1.95 °C | 516 kJ/mol | 520 kJ/mol |
| MMKMEGIALKKRLSWISVCLLVLVSAAGMLFSTAAKTETSSHKAHTEAQVINTFDGVADYLQTYHKLPDNYITKSEAQALGWVASKGNLADVAPGKSIGGDIFSNREGKLPGKSGMTWREADINYTSGFRNSDRILYSSDWLIYKTTDHYQTFTKIR [R116M] | 12 kJ/mol | 1.6 kcal/mol/K | 24.3 kJ/mol | 45.9 °C | -5.77 °C | 442 kJ/mol | 492 kJ/mol |
